In article PMC6251712 (Archives of biochemistry and biophysics, 2018):
Residue numbers refer to the chain shown, from its start. Values belong to the molecule of their own block, whether it stands above or below them. Non-standard residues stand in square brackets, D forms with d. No end group written: not given here. FAM = fluorescent label on the peptide N-terminus (FAM, not expanded in the evidence); pY = N[C@@H](Cc1ccc(OP(=O)(O)O)cc1)C(=O)O

Experiments:
[1] = biological target: FAM-labeled c-MET peptide (1353-1360) with Y1356 phosphorylated, FAM-N-A-T-pY-V-N-V-K; assay: fluorescence polarisation
[2] = biological target: SHIP2 SH2 domain (SHIP2-SH2), wild type (human) (UniProt O15357); assay: NMR titration
SHIP2-SH2 R70A = biological target: T1, SHIP2-SH2 R70A (human, UniProt O15357 20-117, R70A); assay: fluorescence polarisation
T1 sequence (looked up): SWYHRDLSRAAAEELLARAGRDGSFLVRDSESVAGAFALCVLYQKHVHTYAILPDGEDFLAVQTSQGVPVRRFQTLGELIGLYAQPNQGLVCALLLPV

SHIP2-SH2 S49A = biological target: T2, SHIP2-SH2 S49A (human, UniProt O15357 20-117, S49A); assay: fluorescence polarisation
T2 sequence (looked up): T1 sequence (looked up) with S30A, A51R

SHIP2-SH2 R28A = biological target: T3, SHIP2-SH2 R28A (human, UniProt O15357 20-117, R28A); assay: fluorescence polarisation
T3 sequence (looked up): T1 sequence (looked up) with R9A, A51R

SHIP2-SH2 S84A = biological target: T4, SHIP2-SH2 S84A (human, UniProt O15357 20-117, S84A); assay: fluorescence polarisation
T4 sequence (looked up): T1 sequence (looked up) with A51R, S65A

SHIP2-SH2 Q82A = biological target: T5, SHIP2-SH2 Q82A (human, UniProt O15357 20-117, Q82A); assay: fluorescence polarisation
T5 sequence (looked up): T1 sequence (looked up) with A51R, Q63A

SHIP2-SH2 E50A = biological target: T6, SHIP2-SH2 E50A (human, UniProt O15357 20-117, E50A); assay: fluorescence polarisation
T6 sequence (looked up): T1 sequence (looked up) with E31A, A51R

SHIP2-SH2 D48A = biological target: T7, SHIP2-SH2 D48A (human, UniProt O15357 20-117, D48A); assay: fluorescence polarisation
T7 sequence (looked up): T1 sequence (looked up) with D29A, A51R

SHIP2-SH2 S27A = biological target: T8, SHIP2-SH2 S27A (human, UniProt O15357 20-117, S27A); assay: fluorescence polarisation
T8 sequence (looked up): T1 sequence (looked up) with S8A, A51R

Kd [1]: 7.4 µM
Molecule: SHIP2 SH2 domain (SHIP2-SH2), wild type (from UniProt O15357 20-117) (domain or fragment)

Kd [2]: 16.5 µM
Molecule: Y1356-phosphorylated c-MET peptide (1353-1360), N-A-T-pY-V-N-V-K, unlabeled

Kd (SHIP2-SH2 R70A): 239 ± 12.1 µM
Kd (SHIP2-SH2 S49A): 134 ± 5.6 µM
Kd (SHIP2-SH2 R28A): 24.7 ± 1 µM
Kd (SHIP2-SH2 S84A): 6.4 ± 0.2 µM
Kd (SHIP2-SH2 Q82A): 7.5 ± 0.3 µM
Kd (SHIP2-SH2 E50A): 3.2 ± 0.1 µM
Kd (SHIP2-SH2 D48A): 5.5 ± 0.2 µM
Kd (SHIP2-SH2 S27A): 7.3 ± 0.3 µM
Molecule: {FAM}-NAT[pY]VNVK [FAM-labeled c-MET peptide (1353-1360) with Y1356 phosphorylated, FAM-N-A-T-pY-V-N-V-K]
